Test [1] addresses T1, hCMV gH, gL, UL128, UL130 and UL131A co-expressed in HEK293T cells (human cytomegalovirus, UniProt P12824 24-743; P16832 31-278; P16837 1-171; P16772 1-214).
T1 construct: whole, on cells; also called gH + gL + UL128 + UL130 + UL131A; gH/gL/UL128-130 complex
Put plainly: cell cross-competition, 20x excess; competitor 8C15-biotin.

In test [2] the target is T1, hCMV gH, gL, UL128, UL130 and UL131A …. The test can be described thus: cell cross-competition, 20x excess; competitor 2C12-biotin.
Test [3] shares this target. The test can be described thus: cell cross-competition, 20x excess; competitor 4N10-biotin.
Test [4] has the same target. Put plainly: cell cross-competition, 20x excess; competitor 10F7-biotin.
Test [5] has the same target. Put plainly: cell cross-competition, 20x excess; competitor 6G4-biotin.
In test [6] the target is T2, hCMV UL128, UL130 and UL131A co-expressed in HEK293T cells (human cytomegalovirus, UniProt P16837 1-171; P16772 1-214). The test can be described thus: cell-based or functional assay.
The target in test [7] is T1, hCMV gH, gL, UL128, UL130 and UL131A …. The test can be described thus: cell cross-competition, 20x excess; competitor 8J16-biotin.
Test [8] has the same target. The test can be described thus: cell cross-competition, 20x excess; competitor 4I22-biotin.
Test [9] deals with T2, hCMV UL128, UL130 and UL131A …. The test can be described thus: cell-based or functional assay. This is another data set of the same source.
Test [10] concerns the target T1, hCMV gH, gL, UL128, UL130 and UL131A …. Put plainly: cell cross-competition, 20x excess; competitor 9I6-biotin.
The target is the same in test [11]. Put plainly: cell cross-competition, 20x excess; competitor 8I21-biotin.
For test [12] the target is unchanged. The test can be described thus: cell cross-competition, 20x excess; competitor 5A2-biotin.
Test [13] shares this target. Put plainly: cell cross-competition, 20x excess; competitor 15D8-biotin.
The target is the same in test [14]. The test can be described thus: cell cross-competition, 20x excess; competitor 1F11-biotin.
Test [15] has the same target. Put plainly: cell cross-competition, 20x excess; competitor 2F4-biotin.

Bounds are passed on as bounds.

T2 sequence (P16837 whole entry, chain 1 of 2): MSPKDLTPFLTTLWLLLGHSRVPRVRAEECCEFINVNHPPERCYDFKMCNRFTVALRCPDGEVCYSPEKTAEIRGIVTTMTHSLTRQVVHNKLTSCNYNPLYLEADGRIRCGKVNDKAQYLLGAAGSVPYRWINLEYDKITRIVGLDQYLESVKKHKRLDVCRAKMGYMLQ
T2 sequence (P16772 whole entry, chain 2 of 2): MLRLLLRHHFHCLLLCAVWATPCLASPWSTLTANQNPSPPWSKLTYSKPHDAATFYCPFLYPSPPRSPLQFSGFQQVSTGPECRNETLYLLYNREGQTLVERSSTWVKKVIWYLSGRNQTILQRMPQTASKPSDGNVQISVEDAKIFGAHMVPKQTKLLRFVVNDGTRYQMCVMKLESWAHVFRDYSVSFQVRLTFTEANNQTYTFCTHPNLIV

B1: 2C12 (antibody, V domains shown)
VH: QITLRESGPTLVKPTQTLTLTCTFSGFSLNTNGVGVGWIRQPPGKALEWLALIYWNGNEGYSPSLKSRLTITKDTSKNQVVLTMTNMDPVDTATYYCVHWPQGLTTVTRLAFDIWGQGTMVTVSS
VL: QSALTQPRSVSGSPGQSVTISCTGTTSDVGRYNFVSWYQQHPGKAPKLLMYDVSQRPSGVPSRFSGSKSGNTASLTISGLQAEDEAVFYCCSYAGGNFFSYVFGTGTKVTVL
notes: human IgG mAb; also called 2C12-biotin
Turning to B1, the “Inhibition of binding (%)” value in test [1] was 100%; in [2] it was 100%; in test [3] it was 0%; in [4], 0%; in [5] it was 100%; in test [7], 100%. For the same molecule, the “Inhibition of binding (%)” value turned out to be 0% in test [8]; 100% in test [10]; 0% in test [11]; 0% in test [12]; 0% in test [13]; 0% in [14]. Further, the “Inhibition of binding (%)” value in test [15] amounted to 0%. Moreover, in test [6], the “50% Neutralization ARPE (hCMV VR1814)” value was < 0.01 µg/mL. For the same molecule, the “50% Neutralization MRC-9 (hCMV VR1814)” value in test [6] is ≤ 2 µg/mL. In test [9], the “90% Neutralization ARPE (hCMV VR1814)” value stood at 0.006 µg/mL. Also, in test [9], the “90% Neutralization MRC-9 (hCMV VR1814)” value was > 10 µg/mL.

B2: 9I6 (antibody, V domains shown)
VH: EVQLVQSGAEVKKPGESLKISCRESGDTFPAYWIAWVRQMPGKGLEWMGIIYPIDSETTYSPSFQGQVTISADKSINTAYLQWSSLKASDSAIYYCARGTSTGLREAFHIWGQGTMVTVSS
VL: DVVMTQSPLSLAVTLGQPAYISCRSSQSLGYSDGNTYLNWFQQRPGQSPRRLIYEVSNRDSGVPDRFSGSGSGTDFTLKISRVEAEDVGTYYCMQGTHWPPMCSFGQGTKLEIK
notes: human IgG mAb; also called 9I6-biotin; 916
In the case of B2, the “Inhibition of binding (%)” value in test [1] was 100%; in test [2] it was 100%; in test [5], 100%; in test [7] it was 100%; in [8], 0%; in test [10], 100%. Moreover, the “Inhibition of binding (%)” value in test [11], in test [14] and in test [15] was 0% each time. Moreover, the “50% Neutralization ARPE (hCMV VR1814)” value in test [6] is < 0.001 µg/mL. In addition, the “50% Neutralization MRC-9 (hCMV VR1814)” value in [6] is > 2 µg/mL. Moreover, the “90% Neutralization ARPE (hCMV VR1814)” value in test [9] was 0.0007 µg/mL. In addition, in test [9], the “90% Neutralization MRC-9 (hCMV VR1814)” value is > 10 µg/mL.

B3: 8J16 (antibody, V domains shown)
VH: QVQLQESGPGLVKPSETLSLTCSVSGGFTSSYYWSWIRQAPGKGLEWIGYVYYGESTDYNPSLKSRATISIDTSKNQFSLKLSSVTAADTAVYYCAREVDKRGFDYWGQGALVTVSS
VL: EIVLTQSPGTLSLSPGERATLSCRASQSVSGGYLAWYQQEPGQAPRLVIYGASSRATGIPDRFSASGSGTDFTLTITRLEPEDFAVYYCQQYGRTPLTFGGGTKVEIK
notes: human IgG mAb; also called 8J16-biotin
Take B3: the “Inhibition of binding (%)” value in test [1] amounted to 100%; in test [2], 100%; in test [5], 100%; in [7], 100%; in [8], 0%; in test [10], 70%. In addition, the “Inhibition of binding (%)” value in test [11], in test [14] and in [15] was 0% throughout. Moreover, the “50% Neutralization ARPE (hCMV VR1814)” value in test [6] was < 0.001 µg/mL. Also, the “50% Neutralization MRC-9 (hCMV VR1814)” value in test [6] is > 2 µg/mL. Also, the “90% Neutralization ARPE (hCMV VR1814)” value in test [9] is 0.0008 µg/mL. For the same molecule, in [9], the “90% Neutralization MRC-9 (hCMV VR1814)” value is > 10 µg/mL.

These data come from patent publication US20100092481A1 (INSTITUTE FOR RESEARCH IN BIOMEDICINE, published 2010).
